Entries after “also recorded” stand apart in the source; their conditions may differ.
B1: UPF1: protein involved in nonsense-mediated mRNA decay (NMD), expressed in neurons; amino acid sequence SEQ ID NO: 2 (protein, listed as Homo sapiens)
chain: MSVEAYGPSSQTLTFLDTEEAELLGADTQGSEFEFTDFTLPSQTQTPPGGPGGPGGGGAGSPGGAGAGAAAGQLDAQVGPEGILQNGAVDDSVAKTSQLLAELNFEEDEEDTYYTKDLPIHACSYCGIHDPACVVYCNTSKKWFCNGRGNTSGSHIVNHLVRAKCKEVTLHKDGPLGETVLECYNCGCRNVFLLGFIPAKADSVVVLLCRQPCASQSSLKDINWDSSQWQPLIQDRCFLSWLVKIPSEQEQLRARQITAQQINKLEELWKENPSATLEDLEKPGVDEEPQHVLLRYEDAYQYQNIFGPLVKLEADYDKKLKESQTQDNITVRWDLGLNKKRIAYFTLPKTDSDMRLMQGDEICLRYKGDLAPLWKGIGHVIKVPDNYGDEIAIELRSSVGAPVEVTHNFQVDFVWKSTSFDRMQSALKTFAVDETSVSGYIYHKLLGHEVEDVITKCQLPKRFTAQGLPDLNHSQVYAVKTVLQRPLSLIQGPPGTGKTVTSATIVYHLARQGNGPVLVCAPSNIAVDQLTEKIHQTGLKVVRLCAKSREAIDSPVSFLALHNQIRNMDSMPELQKLQQLKDETGELSSADEKRYRALKRTAERELLMNADVICCTCVGAGDPRLAKMQFRSILIDESTQATEPECMVPVVLGAKQLILVGDHCQLGPVVMCKKAAKAGLSQSLFERLVVLGIRPIRLQVQYRMHPALSAFPSNIFYEGSLQNGVTAADRVKKGFDFQWPQPDKPMFFYVTQGQEEIASSGTSYLNRTEAANVEKITTKLLKAGAKPDQIGIITPYEGQRSYLVQYMQFSGSLHTKLYQEVEIASVDAFQGREKDFIILSCVRANEHQGIGFLNDPRRLNVALTRARYGVIIVGNPKALSKQPLWNHLLNYYKEQKVLVEGPLNNLRESLMQFSKPRKLVNTINPGARFMTTAMYDAREAIIPGSVYDRSSQGRPSSMYFQTHDQIGMISAGPSHVAAMNIPIPFNLVMPPMPPPGYFGQANGPAAGRGTPKGKTGRGGRQKNRFGLPGPSQTNLPNSQASQDVASQPFSQGALTQGYISMSQPSQMSQPGLSQPELSQDSYLGDEFKSQIDVALSQDSTYQGERAYQHGGVTGLSQY

What was measured:
[1] = tested on: ALS patients; details: some ALS patients; cited from earlier work
[2] = tested on: wild type neurons; assay: Kaplan-Meyer survival of wild type motor neurons expressing UPF1; type: cell-based, mice or human; details: UPF1 expression in motor neurons; FIG. 1A
From the text: (§1) To test the efficacy of UPF1 in reducing TDP-43 or FUS-mediated cytotoxicity in neurons, UPF1 was expressed in motor neurons expressing disease-associated FUS or TDP-43. Motor neurons were either isolated from mice or created from fibroblasts taken from human ALS patients using iPS cell techniques (described in Yamanaka et al., Cell 126:663-676 (2006)). FUS or TDP-43 were tagged with EGFP (Enhanced Green Fluorescent Protein) and expressed in motor neurons, which were visualized by fluorescent microscopy using mApple.
(§2) The motor neurons died within a few days of FUS or TDP-43 expression due to toxicity of these ALS-related proteins. UPF1 was expressed in the motor neurons and Kaplan-Meyer survival curves were determined.

[3] = tested on: motor neurons expressing TDP-43; assay: Kaplan-Meyer survival of motor neurons expressing disease-associated TDP-43 and UPF1; type: cell-based, mice or human; details: UPF1 expressed in motor neurons expressing EGFP-tagged TDP-43; FIG. 1B
From the text: as §1, §2

[4] = tested on: ALS-associated TDP-43 mutations in yeast; assay: Yeast model of ALS: suppression of cytotoxicity of TDP-43 mutations; type: cell-based
[5] = tested on: motor neurons expressing FUS; assay: Survival of motor neurons expressing disease-associated FUS and UPF1; type: cell-based, mice or human; details: UPF1 expressed in cells expressing FUS; data not shown
From the text: as §1, §2

[6] = tested on: TDP-43; assay: Cytoplasmic level of TDP-43 in neuronal cells expressing UPF1; type: cell-based; details: expression of UPF1
From the text: (§3) The present invention encompasses the surprising finding that NMD agents are useful, among other things, in the treatment or prevention (i.e., delay of onset) of ALS. […] Accordingly, in some embodiments, an NMD agent is provided to the central nervous system of a subject, e.g., a subject suffering from or susceptible to ALS. In some embodiments, an NMD agent is provided to one or more of target cells or tissues of brain, spinal cord, and/or peripheral organs. In some embodiments, target cells or tissues include those cells or tissues that display a disease-associated pathology, symptom, or feature. In some embodiments, target cells or tissues include those cells or tissues in which TDP-43 or FUS/TLS is expressed at an elevated level, e.g., cells in which TDP-43 or FUS/TLS is expressed at an elevated level in the cytoplasm of the cells. As used herein, a target tissue may be a brain target tissue, a spinal cord target tissue and/or a peripheral target tissue.

[7] = tested on: FUS/TLS; assay: Cytoplasmic level of FUS/TLS in neuronal cells expressing UPF1; type: cell-based; details: expression of UPF1
From the text: as §3

[8] = tested on: FUS/TLS toxicity in yeast; details: yeast model of ALS; Ju et al., PLoS Biol. 2011; cited from earlier work
[9] = tested on: ALS-associated mutants of SOD1; assay: Rescue of toxicity of ALS-associated mutants of SOD1 by UPF1 expression; type: cell-based

| Molecule | extension of lifespan of ALS patients [1] | effect on survival of wild type neurons [2] | toxicity of TDP-43 in motor neurons [3] | cytotoxicity of ALS-associated TDP-43 mutations in yeast [4] | toxicity of FUS in motor neurons [5] | cytoplasmic levels of TDP-43 in the neuronal cells [6] | cytoplasmic levels of FUS/TLS in the neuronal cells [7] | toxicity of FUS/TLS in yeast [8] | rescue of toxicity of ALS-associated mutants of SOD1 [9] |
| --- | --- | --- | --- | --- | --- | --- | --- | --- | --- |
| Nc1nc2ccc(OC(F)(F)F)cc2s1 [riluzole] | about 3 months | – | – | – | – | – | – | – | – |
| B1 | – | no effect | reduces cellular toxicity; also recorded: completely eliminate the toxicity of TDP-43 in a dose-dependent manner | able to suppress the cytotoxicity | reduces cellular toxicity | no effect | no effect | able to rescue toxicity; also recorded: suppressed toxicity | unable to rescue |

Source: US10533038B2, “Methods of reducing TDP-43-mediated neuronal cytotoxicity in amyotrophic lateral sclerosis by a UPF1 polypeptide or polynucleotide” (Brandeis University, priority 2012, dated 2020)
